Source: patent US9744220B2, “Compositions and methods for treating inflammatory diseases” (priority 2013, dated 2017)

Experiments:
Limulus amebocyte assay = conditions: sPDNF preparations
Protocol: To ensure that the response observed in wild type mice was not due to TLR activation, MCP-1 and FKN response to IV sPDNF was assessed in TLR-deficient MyD88^−/− mice (23).
PDNF was cloned from the T cruzi Silvio X-10/4 strain (GenBank accession number AJ002174). PDNF and a N-terminal short-form of PDNF (sPDNF) that contains Trk-binding sites, were expressed in BL21 (DE3) bacteria, and purified by Ni-affinity chromatography, as described previously (4, 12, 18, 60). Buffers were prepared in sterile endotoxin-free water, and sPDNF preparations screened with the Limulus amebocyte assay have undetectable levels of endotoxin. sPDNF migrates as a 68 kDa protein on a SDS-PAGE gel. PDNF protein was buffer exchanged into PBS (0.01 M phosphate buffered saline, pH 7.2), filter-sterilized (0.22 μm), and kept at 4° C. PDNF was quantified by scanning densitometry (Bio-Rad, GS-800) of SDS-PAGE gels stained with Coomassie brilliant blue.

primary cardiomyocytes = assay: sPDNF stimulation of primary cardiomyocytes, chemokine transcripts by qPCR; format: cell-based, mouse; conditions: 3 hr, dose-dependent
Protocol: FIG. 7A is a graph depicting MCP-1 and FKN expression in cardiomyocytes of mice infected with T cruzi. FIG. 7B is a graph depicting MCP-1 and FKN expression in cardiac fibroblasts of mice infected with T cruzi. T cruzi infection: Primary cultures of mouse cardiomyocytes (FIG. 7A) and cardiac fibroblasts (FIG. 7B) were plated in 6-well plates, infected with T cruzi Tulahuen strain (MOI=10) for 3, 24, and 72 hr, and MCP-1 and FKN transcripts were quantified by qPCR. Chemokine gene expression was normalized to HPRT and fold change calculated relative to uninfected cells. Points represent mean±SD fold change expression of triplicate samples. The experiment was repeated, and similar results were obtained. FIG. 7C is a graph depicting MCP-1 and FKN expression in cardiomyocytes of mice injected with sPDNF. FIG. 7D is a graph depicting MCP-1 and FKN expression in cardiac fibroblasts of mice injected with sPDNF. sPDNF stimulation: Primary cardiomyocytes (FIG. 7C) and cardiac fibroblasts (FIG. 7D) were plated in 6-well plates, serum starved overnight, then stimulated with the indicated concentration of sPDNF (3 hr), and MCP-1 and FKN transcripts were quantified by qPCR. Chemokine gene expression was normalized to HPRT and fold change calculated relative to vehicle-treated cells; *P<0.05, **P<0.01, and ***P<0.005. […]

B1: sPDNF: N-terminal short-form of T cruzi PDNF that contains Trk-binding sites, recombinant; amino acids 1-588 of SEQ ID NO: 2; JR-100 is the commercial name (protein, listed as Trypanosoma cruzi)
chain: MGKTVVVASRMFWLMFFVPLLLAICPSEPAYALAPGSSRVELFKRKNSTVPFEDKAGKVTERVVHSFRLPALVNVDGVMVAIADARYDTSNDNSLIDTVAKYSVDDGETWETQIAIKNSRVSSVSRVVDPTVIVKGNKLYVLVGSYYSSRSYWSSHGDARDWDILLAVGEVTKSTAGGKITASIKWGSPVSLKKFFPAEMEGMHTNQFLGGAGVAIVASNGNLVYPVQVTNKKKQVFSKIFYSEDDGKTWKFGKGRSDFGCSEPVALEWEGKLIINTRVDWKRRLVYESSDMEKPWVEAVGTVSRVWGPSPKSNQPGSQSSFTAVTIEGMRVMLFTHPLNFKGRWLRDRLNLWLTDNQRIYNVGQVSIGDENSAYSSVLYKDDKLYCLHEINTDEVYSLVFARLVGELRIIKSVLRSWKNWDSHLSSICTPADPAASSSESGCGPAVTTVGLVGFLSGNASQNVWEDAYRCVNASTANAERVRNGLKFAGVGGGALWPVSQQGQNQRYRFANHAFTLVASVTIHEAPRAASPLLGASLDSSGGKKLLGLSYDEKHQWQPIYGSTPVTPTGSWETGKRYHLVLTMANKI
In the case of B1, the levels of endotoxin (Limulus amebocyte assay) is reported as “did not have detectable levels”, the FKN transcripts (primary cardiomyocytes) is reported as “increase” and the MCP-1 transcripts (primary cardiomyocytes) is reported as “increase”.
